The assay has as its target T1, human PD1 on NFAT-luc2/PD1 Jurkat Cell line (Promega, #CS187102) (human, UniProt Q15116 25-288).
T1 construct: whole, on cells; also called PD1+Jurkat cells; human PD1-expressing cell line
Description: flow cytometry on NFAT-luc2/PD1 Jurkat cells, Ab 10 micro g/mL, detected with Goat F(ab')2 anti-Human IgG-PE. A general note: In flow cytometry, cells or beads pass a laser one at a time.
Description: Unbound Abs were removed by washing twice with staining buffer.

T1 sequence (Q15116 25-288): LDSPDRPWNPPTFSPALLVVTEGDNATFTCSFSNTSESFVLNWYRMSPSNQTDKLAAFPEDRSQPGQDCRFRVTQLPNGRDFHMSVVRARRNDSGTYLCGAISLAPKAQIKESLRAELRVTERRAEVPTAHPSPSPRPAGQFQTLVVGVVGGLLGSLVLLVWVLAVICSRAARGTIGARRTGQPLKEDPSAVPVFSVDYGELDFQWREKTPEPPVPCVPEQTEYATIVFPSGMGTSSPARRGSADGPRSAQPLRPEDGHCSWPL

B1: PDA0044 (antibody, human IgG1, kappa, V domains shown)
VH: QSVEESGGRLVTPGTPLTLTCTASGFSLSGYYMSWVRQAPGKGLEWIGSISYGGSTYYASWAKGRFTISKTSTTVDLKITSPTTEDTATYFCAAGYTTNTAFDPWGPGTLVTVSS
VL: AFELTQTPSSVEAAVGGTVTIKCQASQSISSYLAWYQQKPGQPPKLLIYGASNLKSGVPSRFKGSGSGTQFTLTISDLEAADAATYYCQSYYYSSSSSYSFGGGTEVVVKR
Turning to B1, the binding result is given as “binds”.

B2: GY14 (antibody, human IgG1, kappa, V domains shown)
VH: QVQLQQSGAELVRPGASVKLSCKALGDTFTDYEIHWVKQTPVHGLEWIGVIHPGSGGTVYNQKFKGKATLTADKYSSTAYMELSSLTSEDSAVYYCTREGMNTDWYFDVWGAGTTVTVSS
VL: DILMTQDELSLPVSLGDQASISCRSSQTIVHTNGNTYLEWYLQKPGQSPKLLIYKVSNRFSGVPDRFSGSGSGTYFTLKISRLEAEDLGVYYCFQGSHVPYTFGGGTKLEMKR
On to B2, for which the binding result is given as “binds”.

B3: GY5 (antibody, human IgG1, kappa, V domains shown)
VH: QVQLQQSGPELVRPGVSVKISCKGSGHTFTDYALHWVRQSHVKSLEWIGVISSYNGITNYNQRFKGKATMTVDKSSSTAYLELARLTSEDSAIYYCSREEWDVFYYFDYWGQGTTLTVSS
VL: DIMLTQSPLSLPVSLGDQASISCRSSQGIVHSDGNTYLEWYLQKPGQSPKLLIYKVSNRFSGVPDRFSGSGSGTDFILKISRVEAEDLGVYYCFQGSHVPYTFGGGTKLEIKR
Consider B3, for which the binding result is “binds”.

B4: PDA0129 (antibody, human IgG1, kappa, V domains shown)
VH: QSVEESGGRLVTPGTPLTLTCTVSGFSLSSYDMSWVRQAPGKGLEYIGIISSSGSTYYASWAKGRFTISKTSTTVDLKITSPTTEDTATYFCARLGYVGYGYADIWGPGTLVTVSS
VL: IEMTQTPFSVSAAVGGTVTIKCQASEDIYSLLAWYQQKPGQPPKLLIYSASTLASGVPSRFKGSGYGTEFTLTISGVQAADAATYYCQGGYYSSSADNTFGGGTEVVVKR
Regarding B4, the binding result is on record as “binds”.

B5: PDE0171 (antibody, human IgG1, kappa, V domains shown)
VH: QSLEESGGGLVKPGASLTLTCTASGFSFSGSYYMCWVRQAPGKGLECIACIYAGSSGATYYASWAKGRFTVSKTSSTTVTLQMTSLTAADTATYFCARHTNGIGLGLWGPGTLVTVSS
VL: DIVMTQTPASVSAAVGGTVSINCQASEDIENFLAWYQQKPGQPPSLLIYETSKLASGVPSRFSGSGSGTEFTLTISDLEAADAATYYCQSYDWSDSSTYDNTFGGGTEVVVKR
With B5, the binding result was “binds”.

B6: PDA0107 (antibody, human IgG1, kappa, V domains shown)
VH: QSVEESGGRLVTPGTPLTLTCTVSGFSLSRYYMSWVRQAPGKGLEWIGYIYADSGSTWYASWAKGRFTISKTSTTVDLKMTSLTTEDTATYFCARRADHDGAFDLWGPGTLVTVSS
VL: AAVLTQTPSPVSAAVGGTVSISCQSSQSVYGKNELSWYQQKPGQPPKLLIYYASTLASGVPSRFSGSGSGTQFALTISGVQADDAATYYCAGGYSSSVDTTFGGGTEVVVKR
With B6, the binding result is reported as “binds”.

B7: PDC0053 (antibody, human IgG1, kappa, V domains shown)
VH: QQHLVESGGGLVKPGASLTLTCKASGFYFSGYYYMSWVRQAPGKGLEWIASIYSGGSGNTYYASWAKGRFTISKTSSTTVTLQMTSLTAADTATYFCARGADYTHDYPADAAAWSFDPWGPGTLVTVSS
VL: DIVMTQTPASVEAAVGGIVTIKCQASQSISSYLAWYQQKPGQPPNLLIYRASTLASGVPSRFKGSGSGTQFTLTISDLEAADAATYYCQGYHFSSTSSNYGNAFGGGTEVVVKR
With B7, the binding result is reported as “binds”.

B8: PDA0138 (antibody, human IgG1, kappa, V domains shown)
VH: QSVEESGGRLVTPGTPLTLTCTVSGFSLSSYHMCWVRQPPGKGLEYIGIISGGAITYYATWAKGRFTISITSSTTVDLKITSPTTEDTATYFCARGGGYGGGDYNFDLWGQGTLVTVSS
VL: AAVLTQTPSPVSAAVGATVSISCQSSQSVYGNSELAWYQQKPGQRPKLLIFEASKLASGVPSRFSGSGSGTQFSLAISDVQADDAATYYCAGGYSSTSDTTFGGGTEVVVKR
For the molecule B8, the binding result is given as “binds”.

B9: PDC0037 (antibody, human IgG1, kappa, V domains shown)
VH: QSVEESGGRLVTPGTPLTLTCTVSGFSLSYYAMIWVRQAPGKGLEWIGFINSYGKTYYANWAKGRFTISKTSTTVDLKMTSLTSEDTATYFCARERDNYHFNLWGQGTLVTVSS
VL: AQVLTQTPSPVSAAVGGTVTISCQSSESVYNNNWLAWYQQKPGQPPKFLIYDASTLASGVPSRFSGSGSGTQFTLTISGVQADDAATYYCQGTYYSSDWYFVFGGGTEVVVKR
Turning to B9, the binding result is given as “binds”.

The values above are taken from US20260265386A1 (Chugai, published 2026).
